Data taken from article PMC6508567.

Assays:
[1] = target: serpin Z4 (barley (Hordeum vulgare) cv. Harrington) (UniProt P06293); assay: SPR; serpin Z4 immobilised by amine coupling on a CM5 chip, β-amylase injected at 2, 0.9, 0.4, 0.2 and 0.1 μM; PBS; Biacore T200
[2] = target: serpin Z4 (barley (Hordeum vulgare) cv. Harrington) (UniProt P06293); assay: MST; serpin Z4 labelled with an NHS-ester fluorescent dye (70 nM), unlabelled β-amylase from 16 μM to 0.5 nM; PBS with 0.1% Tween-20; Monolith NT.115; three replicates combined

serpin Z4 (barley (Hordeum vulgare) cv. Harrington), sequence (P06293 whole entry): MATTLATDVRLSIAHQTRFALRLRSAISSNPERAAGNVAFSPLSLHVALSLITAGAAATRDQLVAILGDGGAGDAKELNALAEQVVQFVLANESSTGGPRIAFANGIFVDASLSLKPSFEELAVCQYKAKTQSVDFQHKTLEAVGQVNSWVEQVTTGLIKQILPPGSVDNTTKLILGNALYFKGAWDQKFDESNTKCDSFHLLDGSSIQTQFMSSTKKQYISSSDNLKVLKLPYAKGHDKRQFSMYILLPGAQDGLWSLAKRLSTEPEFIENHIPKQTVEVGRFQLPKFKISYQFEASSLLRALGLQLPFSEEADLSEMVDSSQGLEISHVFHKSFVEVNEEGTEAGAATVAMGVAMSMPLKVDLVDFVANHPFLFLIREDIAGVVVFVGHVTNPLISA

- Kd [1]: 316 nM
- Kd [2]: 100 nM
Substance: β-amylase WT (from UniProt P16098 1-535) (enzyme)
